Measurements reported in paper PMC6532394.
Where two headings read alike, the source gives them in different places.

Columns and labels:
Assay in all cases: fluorescence anisotropy
MeCP2 (full-length) [1] = molecular target: T1, MeCP2 (full-length) (human, UniProt P51608 1-486)
MeCP2 (full-length) [2] = molecular target: T1, MeCP2 (full-length); remark: listed apart in the source
MeCP2 (full-length) [3] = molecular target: T1, MeCP2 (full-length); remark: listed apart in the source
MeCP2 (full-length) [4] = molecular target: T1, MeCP2 (full-length); remark: listed apart in the source
MeCP2 (full-length) [5] = molecular target: T1, MeCP2 (full-length); remark: listed apart in the source
MeCP2 (full-length) [6] = molecular target: T1, MeCP2 (full-length); remark: listed apart in the source
MeCP2 (full-length) [7] = molecular target: T1, MeCP2 (full-length); remark: listed apart in the source

T1 sequence (P51608 whole entry): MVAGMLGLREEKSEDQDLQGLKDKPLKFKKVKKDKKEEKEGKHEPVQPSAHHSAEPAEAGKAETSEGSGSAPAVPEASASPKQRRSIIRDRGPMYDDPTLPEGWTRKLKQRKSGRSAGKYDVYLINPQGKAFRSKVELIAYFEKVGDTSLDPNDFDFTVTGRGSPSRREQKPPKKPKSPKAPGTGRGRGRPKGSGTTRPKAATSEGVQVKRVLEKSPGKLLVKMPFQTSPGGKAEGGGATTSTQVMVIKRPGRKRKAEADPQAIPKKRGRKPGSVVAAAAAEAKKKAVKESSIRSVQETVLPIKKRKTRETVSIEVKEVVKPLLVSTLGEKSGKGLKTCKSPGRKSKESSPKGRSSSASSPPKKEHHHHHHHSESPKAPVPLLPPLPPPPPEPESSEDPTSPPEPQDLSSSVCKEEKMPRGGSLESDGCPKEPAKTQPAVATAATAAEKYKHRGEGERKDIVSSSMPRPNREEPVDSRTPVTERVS

Row | Binder | Kd (MeCP2 (full-length) [1]) [nM] | Kd (MeCP2 (full-length) [2]) [nM] | Kd (MeCP2 (full-length) [3]) [nM] | Kd (MeCP2 (full-length) [4]) [nM] | Kd (MeCP2 (full-length) [5]) [nM] | Kd (MeCP2 (full-length) [6]) [nM] | Kd (MeCP2 (full-length) [7]) [nM]
1 | mCpG 20 bp duplex (m/m) (dsDNA, 5mC at CpG C of both strands (strand 1 C8, strand 2 C12)) DNA 1: TCTGGAACGGAATTCTTCTA DNA 2: TAGAAGAATTCCGTTCCAGA | 5.2 ± 0.4 | 36.5 ± 1.4 | 80.3 ± 2.5 | 28.3 ± 1.1 |  |  | 
2 | CpG 20 bp duplex (-/-) (dsDNA, none) DNA 1: TCTGGAACGGAATTCTTCTA DNA 2: TAGAAGAATTCCGTTCCAGA |  |  |  |  | 6.3 ± 0.3 | 155 ± 3.7 | 56.5 ± 1.8
